The labels stand for the following.
B1: Leishmania major profilin (LmProfilin), wild type (natural protein)
chain: SWQAYVDDSLIGSGNMHSAAIIGAADGSYWAYGGSYVPQPEEVQHIQKCLSDFSFVQSSGVNIYGVKFFGLQCGTDGDCKYIFFKKGAAGGCIYTTKQAFIVAVYGNPGDTSSLQQDLEKNTAHAVTVNPADCNTTVKRIADYLIKLGY
notes: Leishmania major profilin, TriTrypDB LmjF.32.0520, UniProt Q4Q5N1; codon-optimised synthetic gene in pCoofy3; also called WT LmProfilin; LmProf-WT; source: E. coli BL21(DE3), purified (Ni-NTA, tag cleavage with 3C-PreScission protease, gel filtration); not shown: His6, N-terminal, cleaved; GST, N-terminal, cleaved
B2: decamer poly-L-proline peptide (peptide)
peptide: PPPPPPPPPP
notes: ten L-prolines written out from these words; also called poly-L-proline decamer; polyproline decamer; source: synthetic peptide, bought: CASLO ApS

Experiment [1] concerns the target Leishmania major actin (LmActin), ATP-actin monomer (UniProt P45520). Description: ITC. Particulars: three independent ITC experiments for each protein; parent: 93.5.
For experiment [2], the target named is Leishmania major actin (LmActin), ATP-actin monomer (Leishmania major) (UniProt P45520). Description: ITC; LmActin (14-19 μM) in the sample cell, profilin (150 μM) in the syringe; 22 °C; G-buffer (2 mM Tris pH 7.5, 0.5 mM β-mercaptoethanol, 0.2 mM CaCl2, 0.2 mM ATP); single set of sites model; three independent experiments.
For experiment [3], the target named is T1, Leishmania major actin (LmActin), ATP-actin monomer (Leishmania major, UniProt P45520 1-376, ATP-bound with Ca2+ (G-buffer), monomeric; C-terminal beta-thymosin-His10 tag removed by chymotrypsin; initiator Met absent as in the 8C47 entity (equals Q9U1E8 2-376)). Description: crystal structure; LmProfilin and LmActin mixed at ~1:1 molar ratio, 4.5 to 6.5 mg/ml, sitting drop; 0.1 M Bis-Tris pH 5.5, PEG4000 26% (w/v), 0.2 M NaCl; ATP-actin monomer with Ca2+. Particulars: both partners purified.

In experiment [4] the target is T1, Leishmania major actin (LmActin), …. Nature of the experiment: ITC; LmActin (14-19 μM) in the sample cell, profilin (150 μM) in the syringe; 22 °C; G-buffer (2 mM Tris pH 7.5, 0.5 mM β-mercaptoethanol, 0.2 mM CaCl2, 0.2 mM ATP); single set of sites model; three independent experiments. The note with it: both partners purified.
The target of experiment [5] is B1. Description: other fluorescence titration; intrinsic tryptophan fluorescence of profilin (1 μM) with 3 to 3156 μM poly-L-proline decamer; room temperature; 20 mM Hepes pH 8.0, 50 mM NaCl; excitation 295 nm; OneSiteBind fit. The note with it: both partners purified.

Consider “Leishmania major profilin (LmProfilin), wild type (from UniProt Q4Q5N1) L115S; L119S”, for which the dissociation constant Kd in experiment [1] turned out to be 2740 nM.
Molecule “LmProfilin-K68A (from UniProt Q4Q5N1 2-150) (natural protein)” came in with a Kd in experiment [2] of 3000 nM.
For “LmProfilin-WH2-SS (Leu115 and Leu119 replaced by serines) (from UniProt Q4Q5N1 2-150) (natural protein)”, the fold reduction of affinity against WT profilin in experiment [2] was found to be 25 fold.
Consider “LmProfilin-Y6A (from UniProt Q4Q5N1 2-150) (natural protein)”, for which the Kd in experiment [2] was 90 nM.
In turn, “LmProfilin-ΔWH2 (entire WH2-like motif deleted) (from UniProt Q4Q5N1 2-150) (natural protein)” gave a fold reduction of affinity against WT profilin in experiment [2] of 25 fold.
As for B1, in experiment [3], the “stoichiometry N” value amounted to 1. In addition, in experiment [4], the Kd was approximately 90 nM.
As to B2, the Kd in experiment [5] turned out to be 263000 nM.

Source of the values: paper PMC10907219, “Leishmania profilin interacts with actin through an unusual structural mechanism to control cytoskeletal dynamics in parasites” (The Journal of Biological Chemistry, 2024).
